Measured values reported in patent US20050159590A1.

Target: IL-1 receptor (type I) on T24 cells (UniProt P14778)
Test: cell-based or functional assay

Sequence of UniProt P14778 (P14778 18-569 limits assumed): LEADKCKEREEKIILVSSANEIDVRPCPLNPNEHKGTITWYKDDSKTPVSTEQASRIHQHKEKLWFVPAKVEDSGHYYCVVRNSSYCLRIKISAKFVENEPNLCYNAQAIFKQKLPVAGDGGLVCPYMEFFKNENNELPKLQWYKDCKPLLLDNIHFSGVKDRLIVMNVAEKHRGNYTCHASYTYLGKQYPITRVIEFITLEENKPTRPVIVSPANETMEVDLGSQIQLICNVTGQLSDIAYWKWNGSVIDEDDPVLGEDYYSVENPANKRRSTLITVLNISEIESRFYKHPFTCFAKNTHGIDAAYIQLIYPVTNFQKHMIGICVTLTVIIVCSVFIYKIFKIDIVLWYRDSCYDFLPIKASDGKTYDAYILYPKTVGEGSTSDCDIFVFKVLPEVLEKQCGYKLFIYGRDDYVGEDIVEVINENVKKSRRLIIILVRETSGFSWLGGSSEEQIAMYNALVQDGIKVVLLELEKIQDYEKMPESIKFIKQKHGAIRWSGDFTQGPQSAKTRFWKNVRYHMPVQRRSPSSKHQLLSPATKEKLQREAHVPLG

## His-tagged IL-1Ra wild type (without signal peptide) from E. coli (from UniProt P18510 26-177) (ligand)
  inhibition of IL-1β-induced secretion of IL-8 from T24 cells, at 200 µg/ml: 70%
  inhibition of IL-1β-induced secretion of IL-8 from T24 cells, at 600 µg/ml: 50%
  inhibition of IL-1β-induced secretion of IL-8 from T24 cells, at 1800 µg/ml: 100%
  inhibition of IL-1β-induced secretion of IL-8 from T24 cells, at 8000 µg/ml: 100%

## commercial IL-1Ra WT (obtained from Prospec Tany TechnoGene Ltd (Rehovot Israel)) (from UniProt P18510 26-177) (ligand)
  inhibition of IL-1β-induced secretion of IL-8 from T24 cells, at 200 µg/ml: > 70%
  inhibition of IL-1β-induced secretion of IL-8 from T24 cells, at 600 µg/ml or above: 100%
